From FireProtDB (doi:10.1038/9384)

B1: Acyl-CoA-binding protein, P07107 (parent)
chain: MSQAEFDKAAEEVKHLKTKPADEEMLFIYSHYKQATVGDINTERPGMLDFKGKAKWDAWNELKGTSKEDAMKAYIDKVEELKKKYGI

Variants of: B1
Details: Bos taurus; pH 5.3; 5 °C; GdnHCl; Fluorescence; Sodium acetate 0.02 M; structure 2ABD; whole UniProt chain shown

| Variant | ddG of mutation (higher = less stable) | denaturant m value | unfolding free energy |
| --- | --- | --- | --- |
| Y32N | 0.97 kcal/mol | 4.95 kcal/mol/M | 7.11 kcal/mol |
| E68A | 0.8 kcal/mol | 3.45 kcal/mol/M | 7.28 kcal/mol |
| D22A | 0.4 kcal/mol | 3.32 kcal/mol/M | 7.68 kcal/mol |
| F6A | 2.63 kcal/mol | 3.51 kcal/mol/M | 5.45 kcal/mol |
| F27A | 1.53 kcal/mol | 3.8 kcal/mol/M | 6.55 kcal/mol |
| Q34A | 3.03 kcal/mol | 4.49 kcal/mol/M | 5.05 kcal/mol |
| I40A | 1.06 kcal/mol | 3.51 kcal/mol/M | 7.02 kcal/mol |
| L26A | 2.02 kcal/mol | 3.36 kcal/mol/M | 6.06 kcal/mol |
| T36A | 1.28 kcal/mol | 3.93 kcal/mol/M | 6.8 kcal/mol |
| Y74F | -0.03 kcal/mol | 3.31 kcal/mol/M | 8.11 kcal/mol |
| K53M | -0.48 kcal/mol | 3.71 kcal/mol/M | 8.56 kcal/mol |
| P20A | 0.91 kcal/mol | 3.3 kcal/mol/M | 7.17 kcal/mol |
| I75A | 1.34 kcal/mol | 3.91 kcal/mol/M | 6.74 kcal/mol |
| K55A | 1.41 kcal/mol | 3.15 kcal/mol/M | 6.67 kcal/mol |
| K55M | 0.22 kcal/mol | 3.33 kcal/mol/M | 7.86 kcal/mol |
| V78A | 1.54 kcal/mol | 3.78 kcal/mol/M | 6.54 kcal/mol |
| A10G | 2 kcal/mol | 3.4 kcal/mol/M | 6.08 kcal/mol |
| K33E | 1.47 kcal/mol | 3.42 kcal/mol/M | 6.61 kcal/mol |
| K33A | 1.61 kcal/mol | 3.39 kcal/mol/M | 6.47 kcal/mol |
| L81A | 4.57 kcal/mol | 3.08 kcal/mol/M | 3.51 kcal/mol |
| Y29A | 2.52 kcal/mol | 3.97 kcal/mol/M | 5.56 kcal/mol |
| Y29N | 2.47 kcal/mol | 3.65 kcal/mol/M | 5.61 kcal/mol |
| Y29F | 1.26 kcal/mol | 3.56 kcal/mol/M | 6.82 kcal/mol |
| L16A | 3.57 kcal/mol | 3.19 kcal/mol/M | 4.51 kcal/mol |
| V13A | 1.5 kcal/mol | 3.47 kcal/mol/M | 6.58 kcal/mol |
